Experimental data reported in patent US20230348571A1 (VANDERBILT UNIVERSITY, published 2023).

What was measured:
SARS-CoV-2 NTD = molecular target: T1, SARS-CoV-2 NTD (SARS-CoV-2, UniProt P0DTC2 16-305); assay: ELISA on RBD and NTD proteins (FIG. 15B, FIG. 19B)
T1 construct: domain: NTD; also called the NTD; N-terminal domain

Scl 70 = molecular target: T2, Scl 70 (UniProt P11387 2-765); assay: Luminex AtheNA Multi-Lyte ANA-II Plus bead assay
T2 construct: Kit antigen
T2 sequence: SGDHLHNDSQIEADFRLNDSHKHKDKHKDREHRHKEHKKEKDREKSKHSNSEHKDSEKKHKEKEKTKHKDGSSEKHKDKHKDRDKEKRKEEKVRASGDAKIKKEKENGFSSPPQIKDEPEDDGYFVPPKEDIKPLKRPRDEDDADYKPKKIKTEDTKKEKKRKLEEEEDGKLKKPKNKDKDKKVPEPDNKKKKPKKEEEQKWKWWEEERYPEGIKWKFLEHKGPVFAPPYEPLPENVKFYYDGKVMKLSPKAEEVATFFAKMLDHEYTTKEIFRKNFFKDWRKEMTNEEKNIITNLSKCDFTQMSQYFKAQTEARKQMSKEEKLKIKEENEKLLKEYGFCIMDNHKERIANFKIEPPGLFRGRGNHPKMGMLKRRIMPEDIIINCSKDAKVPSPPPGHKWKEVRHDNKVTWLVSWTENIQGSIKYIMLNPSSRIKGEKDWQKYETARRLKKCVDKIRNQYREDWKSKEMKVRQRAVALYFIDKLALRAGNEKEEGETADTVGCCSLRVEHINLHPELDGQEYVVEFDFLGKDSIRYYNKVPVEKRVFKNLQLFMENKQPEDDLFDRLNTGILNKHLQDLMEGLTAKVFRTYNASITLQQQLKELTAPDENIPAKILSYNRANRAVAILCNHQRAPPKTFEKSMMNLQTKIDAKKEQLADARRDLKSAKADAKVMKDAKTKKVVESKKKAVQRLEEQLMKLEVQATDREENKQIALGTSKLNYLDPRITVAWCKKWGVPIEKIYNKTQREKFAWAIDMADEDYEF

SS-B/La = molecular target: T3, SS-B/La (UniProt P05455 1-408); assay: Luminex AtheNA Multi-Lyte ANA-II Plus bead assay
T3 construct: Kit antigen
T3 sequence: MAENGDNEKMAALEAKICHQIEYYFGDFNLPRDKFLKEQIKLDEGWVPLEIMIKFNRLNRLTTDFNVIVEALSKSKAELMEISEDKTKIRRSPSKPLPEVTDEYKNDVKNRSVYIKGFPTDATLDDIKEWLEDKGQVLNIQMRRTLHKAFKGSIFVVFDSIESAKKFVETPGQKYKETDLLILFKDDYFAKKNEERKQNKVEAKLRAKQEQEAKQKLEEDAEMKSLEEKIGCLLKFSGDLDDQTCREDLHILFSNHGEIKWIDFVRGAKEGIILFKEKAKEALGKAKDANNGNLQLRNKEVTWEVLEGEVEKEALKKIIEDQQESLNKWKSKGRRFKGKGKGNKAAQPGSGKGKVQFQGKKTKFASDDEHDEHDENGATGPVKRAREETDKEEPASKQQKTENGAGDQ

centromere B = molecular target: T4, centromere B (UniProt P07199 2-599); assay: Luminex AtheNA Multi-Lyte ANA-II Plus bead assay
T4 construct: Kit antigen
T4 sequence: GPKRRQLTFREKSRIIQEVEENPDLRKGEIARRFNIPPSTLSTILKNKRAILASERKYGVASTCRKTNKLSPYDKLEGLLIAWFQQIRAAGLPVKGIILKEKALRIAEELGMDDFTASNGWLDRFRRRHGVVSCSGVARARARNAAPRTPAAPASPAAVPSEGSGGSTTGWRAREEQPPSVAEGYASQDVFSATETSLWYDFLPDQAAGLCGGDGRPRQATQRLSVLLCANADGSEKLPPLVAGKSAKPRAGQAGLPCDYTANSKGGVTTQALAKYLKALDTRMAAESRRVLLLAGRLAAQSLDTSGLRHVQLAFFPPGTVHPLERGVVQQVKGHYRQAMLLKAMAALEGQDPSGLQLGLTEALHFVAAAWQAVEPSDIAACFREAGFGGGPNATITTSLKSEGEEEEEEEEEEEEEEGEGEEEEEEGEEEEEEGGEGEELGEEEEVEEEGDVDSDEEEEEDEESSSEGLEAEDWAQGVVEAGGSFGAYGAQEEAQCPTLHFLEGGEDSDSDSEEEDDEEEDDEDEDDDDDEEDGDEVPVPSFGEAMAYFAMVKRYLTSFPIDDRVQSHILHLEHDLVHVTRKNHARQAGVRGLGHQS

SARS-CoV-2 S1 domain = molecular target: T5, SARS-CoV-2 S1 domain (SARS-CoV-2, UniProt P0DTC2 16-685); assay: ELISA on SARS-CoV-2 subdomain proteins (FIG. 15A, FIG. 19A)
T5 construct: domain: S1; also called the S1 domain

Jo-1 = molecular target: T6, Jo-1 (UniProt P12081 2-509); assay: Luminex AtheNA Multi-Lyte ANA-II Plus bead assay
T6 construct: Kit antigen
T6 sequence: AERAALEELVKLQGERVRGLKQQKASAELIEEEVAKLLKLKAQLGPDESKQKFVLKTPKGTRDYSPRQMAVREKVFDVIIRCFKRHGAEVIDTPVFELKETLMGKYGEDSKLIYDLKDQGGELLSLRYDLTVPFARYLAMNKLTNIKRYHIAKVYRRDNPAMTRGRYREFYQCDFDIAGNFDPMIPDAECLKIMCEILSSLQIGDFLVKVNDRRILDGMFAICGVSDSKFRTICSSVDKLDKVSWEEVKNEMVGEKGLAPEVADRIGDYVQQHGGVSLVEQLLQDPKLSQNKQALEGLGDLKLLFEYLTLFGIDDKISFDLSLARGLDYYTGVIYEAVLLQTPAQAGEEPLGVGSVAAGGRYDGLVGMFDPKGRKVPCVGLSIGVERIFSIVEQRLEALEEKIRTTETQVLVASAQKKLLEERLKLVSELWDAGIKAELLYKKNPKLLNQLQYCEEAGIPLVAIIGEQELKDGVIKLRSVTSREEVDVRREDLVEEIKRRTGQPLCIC

SARS-CoV-2 S2 domain = molecular target: T7, SARS-CoV-2 S2 domain (SARS-CoV-2, UniProt P0DTC2 686-1213); assay: ELISA on SARS-CoV-2 subdomain proteins (FIG. 15A, FIG. 19A)
T7 construct: domain: S2; also called the S2 domain

B1: 46472-6 (antibody, V domains shown)
VH: QLQLQESGPGLVKPSETLFLFCSVSGGSISISTHYWEWIRQPPGKGLEWIGSFYSSGTTYYNPSLKGRVTISADTSKSQISLKMSSVTAADTAVYYCARRPQYLLLSMTTGRRHHDFVMDVWGQGTTVTVSS
VL: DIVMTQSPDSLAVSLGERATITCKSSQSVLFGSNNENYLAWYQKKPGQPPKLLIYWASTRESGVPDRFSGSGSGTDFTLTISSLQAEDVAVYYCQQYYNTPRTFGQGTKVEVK
Q: Does B1 bind (SARS-CoV-2 NTD)?
A: binds

Q: Does B1 bind (Scl 70)?
A: no binding

Q: Does B1 bind (SS-B/La)?
A: no binding

Q: Does B1 bind (centromere B)?
A: no binding

Q: Does B1 bind (SARS-CoV-2 S1 domain)?
A: binds

B2: 46472-3 (antibody, V domains shown)
VH: QVQLVESGGGVVQPGRSLRLSCAASGFTFSVYPMHWVRQAPGRGLEWVAVISYDGSNQYYADSVRGRFTISRDNSKNTLYLHMNSLRPEDTAVFYCARDRSATYYGPFDYWGQGTLVTVSS
VL: SSELTQDPAVSVALGQTVRITCQGDSLRSYSASWYQQKPSQAPVLVIYANNNRPSGIPDRFSGSNSGNTASLTITGAQAEDEADYYCNSRDNSGNHPVIFGGGTTLTVL
Q: Which results are given for B2?
A: binding result (Jo-1): no binding; binding result (Scl 70): no binding; binding result (SS-B/La): no binding; binding result (centromere B): no binding; binding result (SARS-CoV-2 S2 domain): binds

B3: 46472-1 (antibody, V domains shown)
VH: QVQLVQSGAEVKKDGSSVKVSCEASGGTFSDYAISWVRQAPGQGLEWMGRIIPILGITNYAQQFQTRVTITADKSTSAVYMELSSLRSKDTAIYYCAREVNYYSAFDDWGQGTQVTVSS
VL: EIVMTQSPDTLSVSPGERATLSCRASQNVSSNLAWYQQKPGQAPRLLIYDASTRATGIPARFSGSGSGTEFTLAISSLQSEDFAVYYCQQYNFWWTFGQGTKVDIK
Q: Does B3 bind (Jo-1)?
A: no binding

Q: Does B3 bind (Scl 70)?
A: no binding

Q: Does B3 bind (SS-B/La)?
A: no binding

Q: Does B3 bind (centromere B)?
A: no binding

Q: Does B3 bind (SARS-CoV-2 S2 domain)?
A: binds

B4: 46472-12 (antibody, V domains shown)
VH: QVQLVQSGAEVQKPGASVKVSCKASGYRFDIFDINWVRQASGQGPEWMGWMNPNSGNTGYAHKFQGRVTMTRDSSTNTAYMELSSLTFEDTAVYYCARDRVERTGNVGFGYYAMDVWGQGTTVIVSS
VL: DIQMTQSPSSLSASVGDRVTITCRASQSITNYLNWYQQRPGKAPRLLIYAASSLQSGVPSRFSGSGSGTDFTLTISSLQPEDFGTFYCQQTYSSPSYTFGQGTKLEMK
Q: Does B4 bind (Jo-1)?
A: no binding

Q: Does B4 bind (Scl 70)?
A: no binding

Q: Does B4 bind (SS-B/La)?
A: no binding

Q: Does B4 bind (centromere B)?
A: no binding

Q: Does B4 bind (SARS-CoV-2 S1 domain)?
A: binds

B5: 46472-4 (antibody, V domains shown)
VH: EVPLLESGGGLVQPGGSLRLSCVASGFPFSSFALSWVRQAPGKGLEWVSTINTNGGTTYYLDSVKGRFTVSRDNSKNTLFLQMSSLRAEDTAIYYCAKDLLSHSGTYSAGSTFDYWGQGTLVIVSS
VL: DIQMTQSPSSLSASVGDRVTITCRASQSIGVYLNWYQQKPGKAPKLLIHATSNLQSGVPSRFSCSGSGTEFTLTISSLQPEDFATYYCQESYSTNTFGQGTKLEIK
Q: Does B5 bind (Jo-1)?
A: no binding

Q: Does B5 bind (Scl 70)?
A: no binding

Q: Does B5 bind (SS-B/La)?
A: no binding

Q: Does B5 bind (centromere B)?
A: no binding

Q: Does B5 bind (SARS-CoV-2 S2 domain)?
A: binds

B6: 46472-2 (antibody, V domains shown)
VH: EVQLVQSGAEVKKPGESLRISCKGSGYRFITYWISWVRQMPGRGLEWMGKIDPSDSSTNYSPSFQGHVAISVDKSFNTAYLQWSRLNTSDTAMYYCAAGPTGYDLLTGQYFPYFNYWAQGTLVTVSS
VL: NFMLTQPHSVSESPGKTVSISCTRSSGSIASKFMQWYQQRPGSAPTILIYEDNLRPSGVPDRFSGSIDTSSNSALLTISGLKTEDEADYYCQSYHGSDVVFGGGTKLTVL
Q: Does B6 bind (Jo-1)?
A: no binding

Q: Does B6 bind (Scl 70)?
A: no binding

Q: Does B6 bind (SS-B/La)?
A: no binding

Q: Does B6 bind (centromere B)?
A: no binding

Q: Does B6 bind (SARS-CoV-2 S2 domain)?
A: binds
